Molecular target: CHO-PD-L1 (UniProt Q9NZQ7)
Experiment: FACS binding; Fig. 23

Chain of CHO-PD-L1 (Q9NZQ7 19-290): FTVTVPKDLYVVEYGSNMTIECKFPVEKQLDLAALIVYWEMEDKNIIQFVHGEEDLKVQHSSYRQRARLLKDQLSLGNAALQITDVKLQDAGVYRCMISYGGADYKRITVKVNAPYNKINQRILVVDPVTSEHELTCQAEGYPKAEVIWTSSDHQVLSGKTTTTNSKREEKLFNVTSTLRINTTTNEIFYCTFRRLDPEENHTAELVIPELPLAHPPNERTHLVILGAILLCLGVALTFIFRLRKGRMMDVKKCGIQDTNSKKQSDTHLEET

With R0514(avelumab-mIgG2a) the EC50 was 0.494 nM.
